Positions count from the first letter of the chain named.
T1: WNV E protein DIII displayed on yeast (Saccharomyces cerevisiae; West Nile …, UniProt Q9Q6P4 586-705)
T1 construct: domain: DIII; also called WNV DIII
T1 sequence: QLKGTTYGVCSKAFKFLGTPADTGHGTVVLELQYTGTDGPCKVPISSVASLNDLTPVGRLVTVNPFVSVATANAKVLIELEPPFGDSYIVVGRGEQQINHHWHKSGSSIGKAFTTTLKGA

T2: Recombinant WNV-E protein ectodomain (West Nile virus, UniProt Q9Q6P4 291-700)
T2 sequence (looked up): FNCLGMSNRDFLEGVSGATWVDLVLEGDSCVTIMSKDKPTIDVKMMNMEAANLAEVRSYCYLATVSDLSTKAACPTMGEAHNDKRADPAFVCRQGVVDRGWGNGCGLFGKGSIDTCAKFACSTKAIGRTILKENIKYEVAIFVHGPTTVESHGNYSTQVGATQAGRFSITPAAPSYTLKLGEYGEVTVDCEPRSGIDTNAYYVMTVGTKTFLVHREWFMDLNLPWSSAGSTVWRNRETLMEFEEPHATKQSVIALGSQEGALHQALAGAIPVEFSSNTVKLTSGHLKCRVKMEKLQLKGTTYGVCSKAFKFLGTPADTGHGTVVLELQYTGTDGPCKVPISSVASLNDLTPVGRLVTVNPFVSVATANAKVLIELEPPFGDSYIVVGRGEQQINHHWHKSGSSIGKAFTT

B1: scFv-Fc 15 (Fc fusion)
chain: QVQLVQSGAEVKKPGASVKVSCKASGYTFSGYSTHWLRQVPGQGLEWIGWDNPSSGDTTYAENFRGRVTLTRDTSITTDYLEVRGLRSDDTAVYYCARGGDDYSFDHWGQGTLVTVSSGGGGSGGGGSGGGGSQSALTQPASVSGSPGQSITISCTGTNSDVGIYNLVSWYQQHPGKAPKLMIYDVSNRPSGVSSRFSGSNSGNTATLTISGLQAEDEADYYCSAHAGDNTQFGGGTKLTVLS
notes: also called 15 scFv-Fc
B2: scFv-Fc 71 (Fc fusion)
chain: QVQLVQSGAEVKKPGASVKVSCKASGYTFSGYSTHWLRQVPGQGLEWIGWDNPSSGDTTYAENFRGRVTLTRDTSITTDYLEVRGLRSDDTAVYYCARGGDDYSFDHWGQGTLVTVSSGGGGSGGGGSGGGGSSYELTQPPSASGTTGQRVTISCSGSSSNIGSNTVNWYQQLPGTAPKLLIYSNNQRPSGVPDRLSGSKSGTSASLAISGLQSEDEADYYCAAWDARLTGPLFGGGTKLSVLR
notes: also called 71 scFv-Fc
B3: scFv-Fc 73 (Fc fusion)
chain: B2 chain with T147P, L196F
notes: also called 73 scFv-Fc
B4: 79 scFv-Fc (Fc fusion)
chain: QVQLVQSGAEVKKPGSSVKVSCKASGGTFSSYAISWVRQAPGQGLEWMGWMNSNTGDTGYAQKFQGRVTMTRNTSTSTAYMELSSLRSEDTAVYYCAKISNYHYYAMDVWGQGTLVTVSSGGGGSGGGGSGGGGSLPVLTQPPSASGTSGQTVTISCSGGSSNIGSHLVTWYQQFPGTAPKVLIHTNDQRPSGVPDRISGSKSGTSASLAISGLQSDDEGDYYCAAWDDSLNGYVFGTGTKVTVLG
notes: also called scFv-Fc 79; antibody 79 (scFv-Fc)
B5: 84 scFv-Fc (Fc fusion)
chain: QVQLVQSGAEVKKPGASVKVSCKASGYTFSGYSTHWLRQVPGQGLEWIGWDNPSSGDTTYAENFRGRVTLTRDTSITTDYLEVRGLRSDDTAVYYCARGGDDYSFDHWGQGTLVTVSSGGGGSGGGGSGGGGSQSVLTQPPSVSVAPGKTARIPCGGNNSGTKSVHWYQQKPGQAPVLVIYDDRVRPSGIPERFSGSNSGDTATLTISRVAAGDEADYYCQVSDGSGDPPTWVFGGGTRLTVL
notes: also called scFv-Fc 84
B6: scFv-Fc 11 (Fc fusion)
chain: QVQLVQSGAEVKKPGASVKVSCKASGYTFSGYSTHWLRQVPGQGLEWIGWDNPSSGDTTYAENFRGRVTLTRDTSITTDYLEVRGLRSDDTAVYYCARGGDDYSFDHWGQGTLVTVSSGGGGSGGGGSGGGGSSSELTQDPAVSVALGQTVRITCRGDSLRSYYASWYQQKPGQAPVLVIYGENNRPSGIPDRFSGSSSGDTASLTITGAQAEDEADYYCNSRDSSDHLLLFGGGTKL
notes: also called 11 scFv-Fc
B7: 10 (Fc fusion)
scFv-Fc chain: QVQLVQSGAEVKKPGSSVKVSCKASGYTFSGYSTHWLRQVPGQGLEWIGWDNPSSGDTTYAENFRGRVTLTRDTSITTDYLEVRGLRSDDTAVYYCARGGDDYSFDHWGQGTLVTVSSSGGGSGGGGSGGGGSQTVVTQEPSFSVSPGGTITLTCGLSSGSVFTSYYPSWYQQTPGQAPRTLIYSTNTRSSGVPDRFSGSILGNKAALTITGAQADDESDYYCVLYMGSGIGVFGTGTKVTVLG
notes: also called scFv-Fc 10; 10 scFv-Fc
B8: scFv 15 (scFv)
scFv: MAQVQLVQSGAEVKKPGASVKVSCKASGYTFSGYSTHWLRQVPGQGLEWIGWDNPSSGDTTYAENFRGRVTLTRDTSITTDYLEVRGLRSDDTAVYYCARGGDDYSFDHWGQGTLVTVSSGGGGSGGGGSGGGGSQSALTQPASVSGSPGQSITISCTGTNSDVGIYNLVSWYQQHPGKAPKLMIYDVSNRPSGVSSRFSGSNSGNTATLTISGLQAEDEADYYCSAHAGDNTQFGGGTKLTVLSQPKAAPSAAAEQKLISEEDL
notes: also called 15 scFv; antibody 15
B9: scFv 79 (scFv)
scFv: MAQVQLVQSGAEVKKPGSSVKVSCKASGGTFSSYAISWVRQAPGQGLEWMGWMNSNTGDTGYAQKFQGRVTMTRNTSTSTAYMELSSLRSEDTAVYYCAKISNYHYYAMDVWGQGTLVTVSSGGGGSGGGGSGGGGSLPVLTQPPSASGTSGQTVTISCSGGSSNIGSHLVTWYQQFPGTAPKVLIHTNDQRPSGVPDRISGSKSGTSASLAISGLQSDDEGDYYCAAWDDSLNGYVFGTGTKVTVLGQPKATPSAAAEQKLISEEDL
notes: also called 79 scFv; antibody 79
B10: scFv 10 (scFv, not shown: small tags and cut ends)
scFv: MAQVQLVQSGAEVKKPGSSVKVSCKASGYTFSGYSTHWLRQVPGQGLEWIGWDNPSSGDTTYAENFRGRVTLTRDTSITTDYLEVRGLRSDDTAVYYCARGGDDYSFDHWGQGTLVTVSSSGGGSGGGGSGGGGSQTVVTQEPSFSVSPGGTITLTCGLSSGSVFTSYYPSWYQQTPGQAPRTLIYSTNTRSSGVPDRFSGSILGNKAALTITGAQADDESDYYCVLYMGSGIGVFGTGTKVTVLGQPKAAPSAAAEQKLISEEDL
notes: also called 10 scFv; antibody 10
B11: scFv 85 (scFv, not shown: small tags and cut ends)
scFv: MAQVQLVQSGAEVKKPGASVKVSCKASGYTFSGYSTHWLRQVPGQGLEWIGWDNPSSGDTTYAENFRGRVTLTRDTSITTDYLEVRGLRSDDTAVYYCARGGDDYSFDHWGQGTLVTVSSGGGGSGGGGSGGGGSSSELTQDPAVSVALGQTVTITCQGGGLRNYYASWYQQKPGQAPVLLVYGRDNRPSGIPDRFSGSSSGNTASLTITGAQAEDEADYYCNSRDSSGNHLVFGGGTKLTVLGQPKATPSAAAEQKLISEEDL
notes: also called 85 scFv; antibody 85
B12: scFv 71 (scFv)
scFv: MAQVQLVQSGAEVKKPGASVKVSCKASGYTFSGYSTHWLRQVPGQGLEWIGWDNPSSGDTTYAENFRGRVTLTRDTSITTDYLEVRGLRSDDTAVYYCARGGDDYSFDHWGQGTLVTVSSGGGGSGGGGSGGGGSSYELTQPPSASGTTGQRVTISCSGSSSNIGSNTVNWYQQLPGTAPKLLIYSNNQRPSGVPDRLSGSKSGTSASLAISGLQSEDEADYYCAAWDARLTGPLFGGGTKLSVLRQPKAAPSAAAEQKLISEEDL
notes: also called 71 scFv; antibody 71
B13: scFv 73 (scFv)
scFv: B12 scFv with T149P, L198F
notes: also called 73 scFv; antibody 73
B14: scFv 11 (scFv)
scFv: MAQVQLVQSGAEVKKPGASVKVSCKASGYTFSGYSTHWLRQVPGQGLEWIGWDNPSSGDTTYAENFRGRVTLTRDTSITTDYLEVRGLRSDDTAVYYCARGGDDYSFDHWGQGTLVTVSSGGGGSGGGGSGGGGSSSELTQDPAVSVALGQTVRITCRGDSLRSYYASWYQQKPGQAPVLVIYGENNRPSGIPDRFSGSSSGDTASLTITGAQAEDEADYYCNSRDSSDHLLLFGGGTKLTVLGQPKATPSAAAEQKLISEEDL
notes: also called 11 scFv; antibody 11
B15: scFv 69 (scFv, not shown: small tags and cut ends)
scFv: MAQVQLVQSGAEVKEPGSSVKVSCKASGGTFSNYPISWVRQAPGQGLEWMGGIIPITNSPGYAQKFQGRVTISADESTGTVYMELSSLRSEDTAIYYCAKDPNRYESGVLHYWHGLDVWGQGTTVTVSSGGGGSGGGGSGGGGSLPVLTQPPSASGTPGQTVTLSCSGSSSNIGSNTVNWYQQLPGTAPKLLIYSNNQRPSGVPDRFSASKSGTSASLAITGLQAEDEADYFCAAWDDSLVYVFGTGTKVTVLGQPKAAPSAAAEQKLISEEDL
notes: also called 69 scFv; antibody 69
B16: scFv 84 (scFv)
scFv: MAQVQLVQSGAEVKKPGASVKVSCKASGYTFSGYSTHWLRQVPGQGLEWIGWDNPSSGDTTYAENFRGRVTLTRDTSITTDYLEVRGLRSDDTAVYYCARGGDDYSFDHWGQGTLVTVSSGGGGSGGGGSGGGGSQSVLTQPPSVSVAPGKTARIPCGGNNSGTKSVHWYQQKPGQAPVLVIYDDRVRPSGIPERFSGSNSGDTATLTISRVAAGDEADYYCQVSDGSGDPPTWVFGGGTRLTVLGQPKAAPSAAAEQKLISEEDL
notes: also called 84 scFv; antibody 84

target: West Nile virus E protein on WNV strain 2741 virions (West Nile virus, UniProt Q9Q6P4 291-791); assay: cell-based or functional assay
Sequence (Q9Q6P4 291-791 limits assumed): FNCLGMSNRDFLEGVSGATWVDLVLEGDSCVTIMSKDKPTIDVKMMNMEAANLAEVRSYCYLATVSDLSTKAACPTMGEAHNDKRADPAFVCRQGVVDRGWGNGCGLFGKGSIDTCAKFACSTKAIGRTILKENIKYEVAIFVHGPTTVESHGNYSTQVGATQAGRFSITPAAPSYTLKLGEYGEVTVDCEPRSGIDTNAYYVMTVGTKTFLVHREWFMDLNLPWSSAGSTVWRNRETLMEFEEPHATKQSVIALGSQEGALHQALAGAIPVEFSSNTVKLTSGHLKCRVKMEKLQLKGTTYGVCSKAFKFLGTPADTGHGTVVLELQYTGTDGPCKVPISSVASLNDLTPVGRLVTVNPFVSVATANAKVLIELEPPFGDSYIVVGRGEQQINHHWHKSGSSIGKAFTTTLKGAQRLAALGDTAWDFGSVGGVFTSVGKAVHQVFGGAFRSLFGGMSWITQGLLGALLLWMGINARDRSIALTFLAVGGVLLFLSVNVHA

| Binder | PRNT80 titer (µg/ml), plaque reduction neutralization of WNV on Vero cells [µg/mL] |
| --- | --- |
| B1 | 1.25 |
| B2 | 2.5 |
| B3 | 1.25 |
| B4 | 5 |
| B5 | 12.5 |
| B6 | 1.25 |

target: T1, WNV E protein DIII displayed on yeast; assay: flow cytometry on yeast displaying WNV E DIII (pYD1); % positive cells

| Binder | binding result |
| --- | --- |
| B1 | no binding |
| B2 | no binding |
| B3 | no binding |
| B7 | no binding |
| B4 | no binding |
| B5 | no binding |
| B6 | no binding |

target: T2, Recombinant WNV-E protein ectodomain; assay: not given

| Binder | EC50 (read off the curve) [µg/mL] |
| --- | --- |
| B8 | ~0.3 |
| B9 | ~0.4 |

target: T2, Recombinant WNV-E protein ectodomain; assay: ELISA; plate coated with rWNV-E (1 ug/ml), purified His6-tagged scFv, anti-His6-HRP, OD450

| Binder | EC50 (read off the curve) [µg/mL] |
| --- | --- |
| B10 | ~0.2 |

target: T2, Recombinant WNV-E protein ectodomain; assay: SPR (Biacore 3000); scFv on NTA chip via His tag, rWNV-E in solution

| Binder | Ka [M⁻¹] | Kd [nM] | koff [s⁻¹] | kon [M⁻¹ s⁻¹] |
| --- | --- | --- | --- | --- |
| B11 | 7.45e+08 | 1.34 | 0.00673 | 5.01e+06 |
| B12 | 3.64e+07 | 27.5 | 0.00258 | 93900 |
| B13 | 2.3e+08 | 4.35 | 0.00225 | 517000 |
| B14 | 2.03e+08 | 4.92 | 0.00161 | 326000 |
| B8 | 1.04e+08 | 9.65 | 0.00128 | 133000 |
| B15 | 1.69e+07 | 59.2 |  |  |
| B9 | 1.87e+08 | 5.35 | 0.00067 | 125000 |
| B16 | 2.65e+07 | 37.8 | 0.00685 | 181000 |
| B10 | 2.64e+07 | 37.8 | 0.0212 | 561000 |

target: T2, Recombinant WNV-E protein ectodomain; assay: SPR (Biacore); scFv-Fc captured by goat anti-human IgG on CM4 chip, rWNV-E in solution

| Binder | Ka [M⁻¹] | Kd [nM] | koff [s⁻¹] | kon [M⁻¹ s⁻¹] |
| --- | --- | --- | --- | --- |
| B4 | 7.34e+10 | 0.0136 | 3.58e-07 | 26200 |

From US20090130123A1 (published 2009)
